Here are results for 1 molecule from patent publication US20100028347A1 (Eli Lilly, published 2010).

Assay [1] addresses T1, human VEGFR-2 alkaline phosphatase (human, UniProt P35968 20-764).
T1 construct: also called huVEGFR-2-AP; not shown: alkaline phosphatase fusion partner; not described
Description: ELISA: antibody dilutions on plate coated with 1 µg/ml human VEGFR-2 alkaline phosphatase, HRP secondary, O.D. 450. Here is the method: (§1) To determine the specificity of an anti-VEGFR-1 monoclonal antibody to human VEGFR-I, purified antibodies 18F1 were tested in an ELISA-based assay. One μg/ml of recombinant human VEGFR-I Fc, mouse VEGFR-I Fc, mouse VEGFR-2 Fc, or human VEGFR-2 alkaline phosphatase was coated with PBS in a 96-well microtiter plates at 4° C. over night. After wash, the receptor coated plates were blocked with PBS containing 5% Dry Milk and 0.05% Tween 20. Serial dilutions of primary antibody 18F1 to human VEGFR-I, MF1 to mouse VEGFR-I, IC1 1 to human VEGFR-2, or DClOl to mouse VEGFR-2 were incubated in the receptor-coated plates for 30 minutes. After wash secondary anti-primary HRP conjugate antibodies was incubated in the plates for 30 minutes. Plates were washed and incubated with the substrate TMB (3,3′,5,5′-tetra-methylbenzidine) for color development. The absorbance at 450 nm was read as OD values for quantification of binding activity of antibodies. Data were analyzed using a GraphPad Prism Software.

Assay [2] concerns the target native VEGFR-1 expressed on the cell surface (human, UniProt P17948 27-1338). Description: cell-based or functional assay.
Assay [3] addresses T2, mouse VEGFR-2 Fc (mouse, UniProt P35918 20-762, limits assumed).
T2 construct: not shown: Fc part; not described
Description: ELISA: antibody dilutions on plate coated with 1 µg/ml mouse VEGFR-2 Fc, HRP secondary, O.D. 450. Here is the method: as §1
On the technique in general: An ELISA detects its analyte on a solid surface through an enzyme-linked reagent.

Assay [4] has as its target T3, recombinant human VEGFR-1 Fc (human, UniProt P17948-2 27-687, limits assumed).
T3 construct: Bought from R&D Systems; also called rhuVEGFR-1 Fc; HuVEGFR-I-Fc; not shown: Fc part
Nature of the assay: ELISA: antibody dilutions on plate coated with 1 µg/ml human VEGFR-1 Fc, HRP secondary, O.D. 450. Here is the method:
as §1

Assay [5] has as its target T3, recombinant human VEGFR-1 Fc. Description: ELISA: plate coated with HuVEGFR-1-Fc 100 ng/well, goat anti-human kappa-HRP, O.D. 450. On the procedure:
TMB (3,3′,5,5′-tetra-methylbenzidine) substrate (Kierkegaard and Perry Lab, Inc., Gaithersburg, Md.) was used for color development following the manufacturer's instruction. The absorbance at 450 nanometers (nm) was read for quantification of binding activity of antibodies. For identification of the hybridomas producing anti-VEGFR-I antibodies, hybridoma supernatants were preincubated with VEGFR-I AP for 1 hour. […] PNPP (p-nitrophenyl phosphate) substrate for AP was used for color development following the manufacturer's instruction. The absorbance at 405 nm was read for quantification of VEGFR-I binding to VEGF or P1GF. Optical density (OD) values were read on a microtiter plate reader (Molecular Devices Corp., Sunnyvale, Calif.). ED50 and IC50 of the antibodies were analyzed using GraphPad Prism 3 software (GraphPad Software, Inc., San Diego, Calif.).
HuVEGFR-I-Fc, mouse VEGFR-I-AP (hnClone Systems) or huVEGFR-2-AP (ImClone Systems) (100 ng/well) was coated on 96 strip-well plates and blocked with 5% milk/PBS. […]

The target in assay [6] is T4, mouse VEGFR-1-AP (mouse, UniProt P35969 23-759).
T4 construct: From ImClone Systems; also called mouse VEGFR-I-AP; not shown: alkaline phosphatase fusion partner; not described
T4 sequence (looked up): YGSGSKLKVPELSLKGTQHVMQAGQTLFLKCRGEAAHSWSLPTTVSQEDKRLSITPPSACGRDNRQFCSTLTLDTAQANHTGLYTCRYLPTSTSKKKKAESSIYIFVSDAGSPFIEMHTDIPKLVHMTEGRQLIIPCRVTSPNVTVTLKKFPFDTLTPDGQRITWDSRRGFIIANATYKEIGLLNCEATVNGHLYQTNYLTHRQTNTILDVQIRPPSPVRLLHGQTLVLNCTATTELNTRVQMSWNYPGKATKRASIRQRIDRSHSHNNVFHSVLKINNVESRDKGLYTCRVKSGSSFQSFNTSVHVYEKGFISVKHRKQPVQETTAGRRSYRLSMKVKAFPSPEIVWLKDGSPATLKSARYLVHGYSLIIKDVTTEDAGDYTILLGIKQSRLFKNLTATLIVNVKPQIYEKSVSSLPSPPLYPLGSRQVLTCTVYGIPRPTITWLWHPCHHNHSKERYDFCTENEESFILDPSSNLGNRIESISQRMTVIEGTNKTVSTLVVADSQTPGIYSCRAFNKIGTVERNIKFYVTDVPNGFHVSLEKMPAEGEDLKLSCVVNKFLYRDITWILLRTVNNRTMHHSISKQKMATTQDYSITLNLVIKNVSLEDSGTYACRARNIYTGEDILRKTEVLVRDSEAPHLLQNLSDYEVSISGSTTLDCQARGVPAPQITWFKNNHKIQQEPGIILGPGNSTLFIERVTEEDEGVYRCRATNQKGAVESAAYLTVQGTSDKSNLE
Nature of the assay: ELISA: plate coated with mouse VEGFR-1-AP 100 ng/well, goat anti-human kappa-HRP, O.D. 450.

Assay [7] addresses T5, recombinant extracellular domain of VEGFR-1 (UniProt P17948 27-758, limits assumed).
T5 construct: extracellular domain
Nature of the assay: SPR, BIAcore 2000, VEGFR-1 extracellular domain immobilised at low density. Here is the method: Affinities of anti-VEGFR-1 antibody clones 6F9, 13 G12, 15F1 1, 18F1 were determined by plasmon resonance technology using BIAcore 2000 (Pharmacia, Piscataway, N.J.) according to the procedures provided by the manufacturer. Kinetic analyses of the antibodies were performed by immobilization of recombinant extracellular domain of VEGFR-I onto a sensor surface at a low density. The (kₒₙ) and dissociation (kₒ_{^ff}) rates were determined using the BIAevaluation 2.1 software provided by the manufacturer.
On the technique in general: In SPR one partner is held on a chip, and binding of the other changes the refractive index at the surface.

T3 sequence (P17948 other isoform, or with tags, fused parts or gaps limits assumed): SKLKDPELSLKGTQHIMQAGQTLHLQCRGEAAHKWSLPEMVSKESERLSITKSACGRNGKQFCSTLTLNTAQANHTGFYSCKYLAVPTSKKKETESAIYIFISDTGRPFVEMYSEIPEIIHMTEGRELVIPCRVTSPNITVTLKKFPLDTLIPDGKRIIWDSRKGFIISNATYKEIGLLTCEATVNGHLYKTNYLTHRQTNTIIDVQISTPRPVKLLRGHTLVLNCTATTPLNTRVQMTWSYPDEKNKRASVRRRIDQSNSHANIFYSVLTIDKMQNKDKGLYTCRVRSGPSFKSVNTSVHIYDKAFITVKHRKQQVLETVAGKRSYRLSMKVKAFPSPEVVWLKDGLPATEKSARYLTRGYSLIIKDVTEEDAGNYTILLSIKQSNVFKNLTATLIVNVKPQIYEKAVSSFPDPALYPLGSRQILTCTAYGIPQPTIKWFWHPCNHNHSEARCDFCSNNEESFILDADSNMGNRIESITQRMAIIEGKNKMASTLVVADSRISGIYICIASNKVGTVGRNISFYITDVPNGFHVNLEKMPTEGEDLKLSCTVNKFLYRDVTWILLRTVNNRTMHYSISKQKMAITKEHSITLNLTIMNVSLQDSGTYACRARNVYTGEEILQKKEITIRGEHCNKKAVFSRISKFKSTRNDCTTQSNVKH
Chain of native VEGFR-1 expressed on the cell surface (P17948 27-1338): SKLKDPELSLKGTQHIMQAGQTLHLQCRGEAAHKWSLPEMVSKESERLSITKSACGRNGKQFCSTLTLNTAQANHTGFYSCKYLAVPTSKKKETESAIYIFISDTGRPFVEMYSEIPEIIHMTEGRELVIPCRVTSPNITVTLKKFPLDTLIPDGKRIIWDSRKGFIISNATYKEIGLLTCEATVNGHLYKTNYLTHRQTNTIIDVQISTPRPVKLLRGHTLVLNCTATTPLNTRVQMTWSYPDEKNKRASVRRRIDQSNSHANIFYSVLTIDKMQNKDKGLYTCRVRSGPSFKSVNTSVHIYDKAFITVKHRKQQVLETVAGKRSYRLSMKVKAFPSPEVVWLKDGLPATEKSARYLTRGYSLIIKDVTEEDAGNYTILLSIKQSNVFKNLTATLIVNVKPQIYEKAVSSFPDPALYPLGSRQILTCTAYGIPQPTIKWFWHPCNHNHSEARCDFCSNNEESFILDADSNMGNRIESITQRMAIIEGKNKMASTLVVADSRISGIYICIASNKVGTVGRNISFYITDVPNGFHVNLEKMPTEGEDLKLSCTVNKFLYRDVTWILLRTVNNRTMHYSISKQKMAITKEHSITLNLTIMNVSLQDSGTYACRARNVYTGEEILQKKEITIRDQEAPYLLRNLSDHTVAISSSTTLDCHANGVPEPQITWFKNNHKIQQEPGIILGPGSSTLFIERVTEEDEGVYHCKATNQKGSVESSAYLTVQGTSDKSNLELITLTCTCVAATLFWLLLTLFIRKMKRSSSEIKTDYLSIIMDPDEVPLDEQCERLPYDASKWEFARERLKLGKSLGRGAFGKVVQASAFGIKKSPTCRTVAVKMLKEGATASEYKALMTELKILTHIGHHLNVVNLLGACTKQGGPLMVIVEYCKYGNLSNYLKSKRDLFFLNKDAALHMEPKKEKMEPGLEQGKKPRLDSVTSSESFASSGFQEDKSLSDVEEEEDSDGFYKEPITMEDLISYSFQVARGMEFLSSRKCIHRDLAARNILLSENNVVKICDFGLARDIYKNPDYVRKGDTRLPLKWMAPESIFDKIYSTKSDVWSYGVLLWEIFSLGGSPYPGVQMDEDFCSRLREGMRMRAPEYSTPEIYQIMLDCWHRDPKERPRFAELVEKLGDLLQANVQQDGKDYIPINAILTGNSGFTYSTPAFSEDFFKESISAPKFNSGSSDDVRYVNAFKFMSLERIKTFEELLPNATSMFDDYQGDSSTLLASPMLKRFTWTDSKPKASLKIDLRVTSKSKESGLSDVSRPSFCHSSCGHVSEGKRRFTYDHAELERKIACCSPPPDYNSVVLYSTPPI
T5 sequence (P17948 27-758 limits assumed): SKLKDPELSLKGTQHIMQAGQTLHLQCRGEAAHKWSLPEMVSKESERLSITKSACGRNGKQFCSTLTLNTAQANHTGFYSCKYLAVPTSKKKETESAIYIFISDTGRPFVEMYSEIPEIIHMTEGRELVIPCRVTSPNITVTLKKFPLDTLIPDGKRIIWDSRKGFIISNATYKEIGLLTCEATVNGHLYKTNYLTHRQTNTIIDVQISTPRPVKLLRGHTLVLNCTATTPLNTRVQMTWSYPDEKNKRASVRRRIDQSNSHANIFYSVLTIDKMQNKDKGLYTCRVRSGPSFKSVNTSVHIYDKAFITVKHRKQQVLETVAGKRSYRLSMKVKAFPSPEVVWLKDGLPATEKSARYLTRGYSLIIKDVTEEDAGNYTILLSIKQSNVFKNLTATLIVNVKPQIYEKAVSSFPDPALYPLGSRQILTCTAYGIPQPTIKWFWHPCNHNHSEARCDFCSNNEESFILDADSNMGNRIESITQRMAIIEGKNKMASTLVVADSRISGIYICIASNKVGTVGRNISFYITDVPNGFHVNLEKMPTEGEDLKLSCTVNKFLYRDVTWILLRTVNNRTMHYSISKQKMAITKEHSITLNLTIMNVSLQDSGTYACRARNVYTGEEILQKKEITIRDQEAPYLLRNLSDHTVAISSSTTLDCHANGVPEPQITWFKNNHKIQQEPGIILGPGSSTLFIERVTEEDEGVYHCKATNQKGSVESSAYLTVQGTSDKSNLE
T1 sequence (P35968 20-764): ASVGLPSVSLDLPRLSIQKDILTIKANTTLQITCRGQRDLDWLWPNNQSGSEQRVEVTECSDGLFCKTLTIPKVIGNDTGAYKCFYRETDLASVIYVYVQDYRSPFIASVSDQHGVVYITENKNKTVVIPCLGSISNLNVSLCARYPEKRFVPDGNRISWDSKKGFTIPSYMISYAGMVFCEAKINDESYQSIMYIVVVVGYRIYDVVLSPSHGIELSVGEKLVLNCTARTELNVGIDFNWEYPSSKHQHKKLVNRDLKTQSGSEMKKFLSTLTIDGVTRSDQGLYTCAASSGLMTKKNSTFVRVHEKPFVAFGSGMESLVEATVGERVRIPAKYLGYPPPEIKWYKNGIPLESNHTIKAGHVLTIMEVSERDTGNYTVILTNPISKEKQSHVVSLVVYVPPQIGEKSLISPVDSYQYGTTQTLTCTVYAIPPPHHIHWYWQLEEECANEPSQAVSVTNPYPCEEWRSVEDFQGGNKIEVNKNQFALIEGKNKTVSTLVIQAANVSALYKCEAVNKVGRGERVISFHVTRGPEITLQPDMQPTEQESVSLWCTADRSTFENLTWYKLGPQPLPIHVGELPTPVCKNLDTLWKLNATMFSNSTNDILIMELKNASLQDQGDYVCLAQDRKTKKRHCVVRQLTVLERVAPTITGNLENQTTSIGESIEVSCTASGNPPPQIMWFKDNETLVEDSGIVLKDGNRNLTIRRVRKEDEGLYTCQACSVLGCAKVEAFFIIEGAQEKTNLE
T2 sequence (P35918 20-762 limits assumed): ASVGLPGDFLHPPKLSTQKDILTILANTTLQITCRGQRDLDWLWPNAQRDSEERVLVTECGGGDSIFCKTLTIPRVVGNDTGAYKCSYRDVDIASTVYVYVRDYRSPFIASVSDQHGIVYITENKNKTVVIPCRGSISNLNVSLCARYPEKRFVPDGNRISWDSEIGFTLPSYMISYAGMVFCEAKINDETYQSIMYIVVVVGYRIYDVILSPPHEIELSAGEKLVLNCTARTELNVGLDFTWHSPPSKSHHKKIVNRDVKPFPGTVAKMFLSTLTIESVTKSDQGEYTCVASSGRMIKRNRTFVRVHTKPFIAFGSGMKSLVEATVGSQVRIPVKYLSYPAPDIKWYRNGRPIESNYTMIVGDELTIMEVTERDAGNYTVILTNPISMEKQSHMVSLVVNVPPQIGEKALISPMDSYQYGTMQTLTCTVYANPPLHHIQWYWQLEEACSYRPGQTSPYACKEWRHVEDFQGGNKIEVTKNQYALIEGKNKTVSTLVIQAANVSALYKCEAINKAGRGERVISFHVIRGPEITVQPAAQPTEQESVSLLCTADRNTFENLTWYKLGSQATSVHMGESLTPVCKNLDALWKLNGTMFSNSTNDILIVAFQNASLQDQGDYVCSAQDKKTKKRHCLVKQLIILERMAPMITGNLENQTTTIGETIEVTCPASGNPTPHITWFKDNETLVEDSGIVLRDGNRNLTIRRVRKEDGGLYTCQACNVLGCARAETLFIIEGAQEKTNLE

B1: anti-human VEGFR-1 antibody 18F1 (antibody, V domains shown)
VH: QAQVVESGGGVVQSGRSLRLSCAASGFAFSSYGMHWVRQAPGKGLEWVAVIWYDGSNKYYADSVRGRFTISRDNSENTLYLQMNSLRAEDTAVYYCARDHYGSGVHHYFYYGLDVWGQGTTVTVSS
VL: not shown
notes: Fully human antibody (gamma heavy chain, kappa light chain) from hybridomas of KM transgenic mice, purified; The light chain entry runs a few residues into the kappa constant region; also called MC-18F1; IMC-18F1
Regarding B1, the binding result in assay [1] is reported as “no binding (tested: 1 µg/ml)”; in assay [3], “no binding (tested: 1 µg/ml)”; in assay [6] it was “no binding (tested: 1 µg/mL)”. In assay [2], the “VEGF-A and P1GF stimulated proliferation of DU4475 breast carcinoma cells (estimated IC50)” value is 30 to 50 nM. For the same molecule, the “EC50 (read off the curve)” value in assay [4] and in assay [5] was around 3 ng/mL in each case. Further, in assay [7], the equilibrium dissociation constant (Kd) (as a rule, the free concentration of one partner at which half of the binding sites on the other are occupied at equilibrium, for simple one-to-one binding) is 0.054 nM. The kon – broadly, the rate constant with which the complex forms – in assay [7] was 810000 M⁻¹ s⁻¹.
